For test [1], the target named is human neonatal Fc-receptor (FcRn) (human) (UniProt P55899). In words: FcRn affinity chromatography, symmetrically modified anti-HER2 antibody.
For test [2] the target is unchanged. Put plainly: FcRn affinity chromatography.

Chain of human neonatal Fc-receptor (FcRn) (human) (P55899 24-297 limits assumed, chain 1 of 2): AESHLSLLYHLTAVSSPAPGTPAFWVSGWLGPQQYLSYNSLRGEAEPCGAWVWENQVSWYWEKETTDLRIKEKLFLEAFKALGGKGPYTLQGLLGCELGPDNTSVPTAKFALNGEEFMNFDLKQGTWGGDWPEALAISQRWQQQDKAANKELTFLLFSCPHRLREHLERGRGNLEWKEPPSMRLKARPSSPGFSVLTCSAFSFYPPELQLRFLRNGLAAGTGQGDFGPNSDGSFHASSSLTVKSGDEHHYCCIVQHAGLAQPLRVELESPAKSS
Chain of human neonatal Fc-receptor (FcRn) (human) (P61769 21-119 limits assumed, chain 2 of 2, further chain): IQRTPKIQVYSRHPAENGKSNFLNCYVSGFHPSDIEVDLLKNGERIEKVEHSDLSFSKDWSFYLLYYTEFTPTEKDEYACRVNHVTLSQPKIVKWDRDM

As for anti-HER2 antibody, R255D (symmetric), in test [1], the retention time came out at 41.4 min. In test [2], “bispecific antibody (knobs-into-holes), first chain with I253A/H310A/H435A and second chain with H310A” returned an RT [min] (retention time on the FcRn affinity column) of 0 min. The substance anti-HER2 antibody, E258H (symmetric) yielded a retention time in test [1] of 45.6 min. In turn, “bispecific antibody (knobs-into-holes), first chain with I253A/H310A/H435A and second chain with H435A” showed an RT [min] (retention time on the FcRn affinity column) in test [2] of 0 min. Consider anti-HER2 antibody, L309H (symmetric), for which the retention time in test [1] was determined as 45.5 min.

Regarding anti-HER2 antibody, K290H (symmetric), in test [1], the retention time stood at 46.2 min. For “bispecific antibody (knobs-into-holes), first chain with I253A/H310A/H435A and second chain with I253A/H310A/H435A”, the RT [min] (retention time on the FcRn affinity column) in test [2] was found to be 0 min. The substance anti-HER2 antibody, N434H (symmetric) showed a retention time in test [1] of 52 min. anti-HER2 antibody, K288E (symmetric) came in with a retention time in test [1] of 45.2 min. In turn, “IgG1 Fc-region with L234A/L235A/P329G and Y436A (symmetric)” showed a FcRn-affinity column retention time in test [2] of 41.3 min.
